Biological target: Calmodulin (Bos taurus, UniProt P62157)
Assay: dansyl-calmodulin fluorescence titration

Kd | Binder
1780 nM | WASMLACRLWKAISRALFAEF (dansyl-calmodulin, Ca2+) [Aquaporin 6 N-terminal peptide (h6 Nter) N-terminal calmodulin binding site, 21-aa peptide]
790 nM | RAYLLVGGLWTAISKALFAEF (dansyl-calmodulin, Ca2+) [Aquaporin 6 N-terminal peptide (Nter) N-terminal calmodulin binding site, 21-aa peptide]

Reference: paper PMC2695410 (2009)
